Measured values reported in patent US7301014B2, “Nucleic acid molecule encoding a novel estrogen receptor beta variant” (Wyeth, priority 2002, dated 2007).
Entries after “also recorded” stand apart in the source; their conditions may differ.

Tests used:
Type in all cases: cell-based, human
[1] = tested on: ERE-tk-Luciferase reporter in HepG2 cells; assay: Transactivation of ERE-tk-Luciferase reporter by estrogen receptor variants, transient transfection; parameters: dose or concentration left out as unconfirmed; details: HepG2 cells transfected with receptor expression plasmid; stimulation with E2 (17b-estradiol) vs ethanol vehicle, 24 hrs; normalized to β-galactosidase
Text: (§1) The estrogen response element (ERE) containing reporter, ERα, and ERβ expression plasmids have been described previously (Bodine, et al J Cell Biochem 1997; 65: 368-387 and Bhat et al. J Steroid Biochem Mol Biol 1998; 67(3):233-40). The ERβcx2 expression plasmid was constructed by cloning a BstXI/Xbal fragment of the original ERβcx2 clone (ef1-3/pCR 2.1) into the ERβ expression plasmid digested with the same restriction enzymes. The sequence of the clone was confirmed by sequence analysis. An SV40-β gal plasmid (Promega, Madison, Wis.) was used to normalize transfections.
(§2) Cells were transfected with lipofectamine 2000 and incubated in the presence or absence of estrogen for 24 hrs. Luciferase expression was monitored in the cell lysates. Transient transfections were performed in HepG2 cells maintained in DMEM supplemented with 10% fetal bovine serum. Twenty-four hours prior to transfection, cells are seeded in phenol red-free (PRF) DMEM containing 10% charcoal-stripped serum (csFBS), into collagen-coated 6 well plates (Biocoat, Becton Dickenson). […] 24 hrs later, […] luciferase activity was quantitated in an automated ML 1000 Luminometer (Dynex Technologies, Chantilly, Va.,). β-galactosidase activity was measured in cell lysates to normalize for differences in transfection efficiency. […]

[2] = tested on: ERβ signaling pathway; assay: Cotransfection of ERE-tk reporter with ERβ and increasing amounts of ERβcx2 expression plasmid (dominant negative activity); details: ERE-tk reporter cotransfected with ERβ; E2 ligand activation; luciferase measured in 48 hrs; FIG. 10
Text: as §1
as §2, with “serum.” for “serum. Twenty-four hours prior to transfection, cells are seeded in phenol red-free (PRF) DMEM containing 10% charcoal-stripped serum (csFBS), into collagen-coated 6 well plates (Biocoat, Becton Dickenson).”
(§3) In these experiments, the ERE-tk reporter was cotransfected with either ERα or ERβ and increasing amounts of the ERβcx2 expression plasmid. Luciferase acitivity was measured in 48 hrs. […]

[3] = tested on: ERα signaling pathway; assay: Cotransfection of ERE-tk reporter with ERα and increasing amounts of ERβcx2 expression plasmid (dominant negative activity); details: ERE-tk reporter cotransfected with ERα; E2 ligand activation; luciferase measured in 48 hrs; FIG. 9
Text: as §1
as §2, with “serum.” for “serum. Twenty-four hours prior to transfection, cells are seeded in phenol red-free (PRF) DMEM containing 10% charcoal-stripped serum (csFBS), into collagen-coated 6 well plates (Biocoat, Becton Dickenson).”
as §3

Row | signaling through E2-activated ERβ (luciferase) with increasing amounts of the ERβcx2 expression construct [2] | luciferase activity of E2-activated ERα with increasing amounts of the ERβcx2 expression construct [3] | Molecule | ligand-activated transcription of the ERE-reporter (luciferase activity), induction [1]
1 | – | – | ERβ: wild-type estrogen receptor beta, expressed from expression plasmid (protein, UniProt Q92731 1-530, looked up) Estrogen receptor beta: MDIKNSPSSLNSPSSYNCSQSILPLEHGSIYIPSSYVDSHHEYPAMTFYSPAVMNYSIPSNVTNLEGGPGRQTTSPNVLWPTPGHLSPLVVHRQLSHLYAEPQKSPWCEARSLEHTLPVNRETLKRKVSGNRCASPVTGPGSKRDAHFCAVCSDYASGYHYGVWSCEGCKAFFKRSIQGHNDYICPATNQCTIDKNRRKSCQACRLRKCYEVGMVKCGSRRERCGYRLVRRQRSADEQLHCAGKAKRSGGHAPRVRELLLDALSPEQLVLTLLEAEPPHVLISRPSAPFTEASMMMSLTKLADKELVHMISWAKKIPGFVELSLFDQVRLLESCWMEVLMMGLMWRSIDHPGKLIFAPDLVLDRDEGKCVEGILEIFDMLLATTSRFRELKLQHKEYLCVKAMILLNSSMYPLVTATQDADSSRKLAHLLNAVTDALVWVIAKSGISSQQQSMRLANLLMLLSHVRHASNKGMEHLLNMKCKNVVPVYDLLLEMLNAHVLRGCKSSITGSECSPAEDSKSKEGSQNPQSQ | 8.0 fold
2 | reduced | diminished | ERβcx2: novel human estrogen receptor beta variant; C-terminal 61 amino acids of wild-type ERβ replaced by unique 7 amino acids; tested as expression plasmid (protein, not fully specified; X: residue not identified in the source, novel human estrogen receptor beta variant; C-terminal 61 amino acids of wild-type ERβ replaced by unique 7 amino acids; tested as expression plasmid) KVFSQLLSQDMNIKNSPSSLNSPSSYNCSQSILPLEHGSIYIPSSYVDSHHEYPAMTFYSPAVMNYSIPSNVTNLEGGPGRQTTSPNVLWPTPGHLSPLVVHRQLSHLYAEPQKSPWCEARSLEHTLPVNRETLKRKVSGNRCASPVTGPGSKRDAHFCAVCSDYASGYHYGVWSCEGCKAFFKRSIQGHNDYICPATNQCTIDKNRRKSCQACRLRKCYEVGMVKCGSRRERCGYRLVRRQRSADEQLHCAGKAKRSGGHAPRVRELLLDALSPEQLVLTLLEAEPPHVLISRPSAPFTEASMMMSLTKLADKELVHMISWAKKIPGFVELSLFDQVRLLESCWMEVLMMGLMWRSIDHPGKLIFAPDLVLDRDEGKCVEGILEIFDMLLATTSRFRELKLQHKEYLCVKAMILLNSSMYPLVTATQDADSSRKLAHLLNAVTDALVWVIAKSGISSQQQSMRLANLLMLLSHVRHARLYIWALKMFAALKQILRPAFPSSRECFPYCVPLMSMALSQRVHDINKVFHYFGFXKKKKKKKXXXXKKGRPLRIPR | unable to induce transcription; also recorded: unchanged
